Results published in US20170099813.

What was measured:
Assay in all cases: cell_activity
[1] = test system: ssSRY1.2 TALEN left monomer (artificial); settings: pair with p4; Surveyor day 3, swine fibroblasts
[2] = test system: ssSRY1.3 TALEN left monomer (artificial); settings: pair with p6; Surveyor day 3, swine fibroblasts
[3] = test system: ssSRY1.1 TALEN left monomer (artificial); settings: pair with p2; Surveyor day 3, swine fibroblasts; 46.3% HDR with ssODN
[4] = test system: ssSRY1.2 TALEN right monomer (artificial); settings: pair with p3; Surveyor day 3, swine fibroblasts
[5] = test system: ssSRY1.1 TALEN right monomer (artificial); settings: pair with p1; Surveyor day 3, swine fibroblasts; 46.3% HDR with ssODN
[6] = test system: ssSRY1.3 TALEN right monomer (artificial); settings: pair with p5; Surveyor day 3, swine fibroblasts

“AGAGAACCCTCAAATG (double strand) [ssSRY1.2 left half-site]” gave an activity [1] of 35 % NHEJ.
Work on “CAGCAAGTGGCTGGGA (double strand) [ssSRY1.3 left half-site]” yielded an activity [2] of 16.2 % NHEJ.
“GAACGCTTTCATTGTG (double strand) [ssSRY1.1 left half-site]” gave an activity [3] of 30 % NHEJ.
“GCAAGTGGCTGGGATGC (double strand) [ssSRY1.2 right half-site]” showed an activity [4] of 35 % NHEJ.
With “GGAGAAAAGTGGCTCT (double strand) [ssSRY1.1 right half-site]” the activity [5] was 30 % NHEJ.
“TTACAGAAGCCGAAA (double strand) [ssSRY1.3 right half-site]” showed an activity [6] of 16.2 % NHEJ.
